What follows are substances tested against N-terminus of murine PDE8, containing the PAS/PAC domain, fused to the LexA DNA binding domain (PDE8/LexA) (murine) (assay: yeast two-hybrid screen, number of high-stringency positive cDNA clones).
Sequence of N-terminus of murine PDE8, containing the PAS/PAC domain, fused to the LexA DNA binding domain (PDE8/LexA) (murine) (P0A7C2 other isoform, or with tags, fused parts or gaps limits assumed): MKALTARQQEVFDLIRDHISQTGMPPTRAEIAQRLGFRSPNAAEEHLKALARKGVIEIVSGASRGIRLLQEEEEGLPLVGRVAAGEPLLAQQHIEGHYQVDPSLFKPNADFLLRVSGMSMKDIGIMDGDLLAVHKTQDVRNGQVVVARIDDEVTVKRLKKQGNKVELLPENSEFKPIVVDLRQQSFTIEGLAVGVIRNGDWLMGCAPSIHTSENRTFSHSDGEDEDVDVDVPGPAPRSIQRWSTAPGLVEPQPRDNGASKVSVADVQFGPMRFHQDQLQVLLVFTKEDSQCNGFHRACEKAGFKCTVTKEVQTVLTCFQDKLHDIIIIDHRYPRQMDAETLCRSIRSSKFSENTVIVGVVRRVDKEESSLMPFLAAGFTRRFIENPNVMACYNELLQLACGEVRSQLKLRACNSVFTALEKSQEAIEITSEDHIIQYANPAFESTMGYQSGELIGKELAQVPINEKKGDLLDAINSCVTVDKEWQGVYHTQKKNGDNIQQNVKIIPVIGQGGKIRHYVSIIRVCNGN
In the case of LC8/PIN (Novel), the # of clones is reported as 15 clones.
“LC8/PIN (dynein 8 kDa light chain) (from UniProt P63167 1-89)” showed a # of clones of 30 clones.
With KIAA0898 (from UniProt O94972 1-964) the # of clones was 8 clones.

From US20070116705A1
